{
  "source": "paper PMC8872793",
  "binders": {"B1": {"name": "(dT)100 (ssDNA)", "DNA": "TTTTTTTTTTTTTTTTTTTTTTTTTTTTTTTTTTTTTTTTTTTTTTTTTTTTTTTTTTTTTTTTTTTTTTTTTTTTTTTTTTTTTTTTTTTTTTTTTTTT"}},
  "target": "Mtb UvrD1 WT (Mycobacterium tuberculosis H37Rv, UniProt P9WMQ1 1-771)",
  "sequence (P9WMQ1 whole entry)": "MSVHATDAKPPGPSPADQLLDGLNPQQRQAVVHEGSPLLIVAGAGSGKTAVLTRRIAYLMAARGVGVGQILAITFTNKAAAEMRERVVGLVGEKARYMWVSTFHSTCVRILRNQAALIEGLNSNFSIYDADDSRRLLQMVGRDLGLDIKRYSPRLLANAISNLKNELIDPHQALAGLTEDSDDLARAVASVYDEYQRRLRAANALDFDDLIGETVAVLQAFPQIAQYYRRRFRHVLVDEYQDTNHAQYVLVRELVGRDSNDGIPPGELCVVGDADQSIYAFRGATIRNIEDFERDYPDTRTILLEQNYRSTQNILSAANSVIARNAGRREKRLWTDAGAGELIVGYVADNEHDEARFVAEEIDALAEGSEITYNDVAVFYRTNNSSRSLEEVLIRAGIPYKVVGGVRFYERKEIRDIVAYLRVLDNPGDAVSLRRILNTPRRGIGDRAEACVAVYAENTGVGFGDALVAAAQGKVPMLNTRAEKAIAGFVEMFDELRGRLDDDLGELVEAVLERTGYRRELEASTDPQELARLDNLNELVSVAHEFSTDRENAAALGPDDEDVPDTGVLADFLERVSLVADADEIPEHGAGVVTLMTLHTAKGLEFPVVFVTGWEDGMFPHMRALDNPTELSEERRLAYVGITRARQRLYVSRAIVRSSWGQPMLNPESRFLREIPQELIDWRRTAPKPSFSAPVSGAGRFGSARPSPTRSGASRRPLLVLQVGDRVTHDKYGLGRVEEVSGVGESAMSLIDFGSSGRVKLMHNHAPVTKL",
  "experiment": "tryptophan fluorescence dissociation kinetics",
  "data": [
    {"binder": "B1", "values": [
      {"measurement": "binding result", "value": "binds"}
    ]}
  ]
}
